From the RNAGym collection of RNA variant scans (doi:10.7554/elife.90254) come the findings set out here.

Sequences and labels used below:
B1: LINE1-full (parent)
chain: UACGUAGGUGGUUUUCCCCUGAUAGUGCUAAGGGGGCCUGGAAGUUUGGACUGGGCAGAGCUCAACACAGCGUGGCAAAGUGGCUGUGGCUAGACUGCCUCUCUGGAUUCCUCGUCACUCAGCAGGGCAUCUCUGAGAGAAAUGCC

In the data set the parent is B1. Nature of the data set: self-cleavage, relative activity (ratio to wild type); higher = more cleavage; in vitro, sequencing; the parent is a self-cleaving ribozyme.
For U47C A129U, the self-cleavage amounted to 1.74. For U45C A138U the value was 1.48; for U45C A138G, 1.47.

U45C A138C: the self-cleavage is 1.44. For U45C G55A the value was 0.27.

As for U45C G55C, the self-cleavage is 0.1. For U45C C113U the value was 1.15. In the case of U45C C113A, the self-cleavage was determined as 2.37. U46C U52C: the self-cleavage is 1.26. For U45C G75A the value was 1.13; for U47A A92G, 0.17. For U47A A92U the value was 0.5; for U45C U109C, 0.61. For U47A U102A the value was 1.35. Turning to U47A U102C, the self-cleavage is 1.19. For U46C A94C the value was 0.1; for U47A A124G, 0.79; for U46C U115C, 1.66.

As for U47C A94G, the self-cleavage worked out at 0.51. With U47C A140G the figure was 1.52; with U46A A77U, 1.24. For U46C C56U the value was 0.5; for U45G G55C, 0.08. For U46G A67G the value was 0.32; for U46A U132A, 1.09. With U46C C95U, the self-cleavage was found to be 0.23. For U47A A138G the value was 1.39. For U46C A50G the value was 1.59.

For U47A U52C, the self-cleavage amounted to 1.37. With U46A A142U the figure was 1.19; with U46C C84U, 0.2; with U46G U87C, 0.

As for U45C A124U, the self-cleavage was 1.58. With U45C A124G the figure was 1.18. Take U46C U132A: the self-cleavage amounted to 2.44. For U46C U132C, the self-cleavage is 1.61. With U46C U132G the figure was 1.91; with U45C G49A, 0.77; with U47A U108C, 1.22. For U47A C76U the value was 1.83. U47A G72A: the self-cleavage came out at 0.95. For U45G U108C, the self-cleavage turned out to be 1.91. With U45G A140G the figure was 1.33; with U46C A129U, 1.27.

For U46C A129G, the self-cleavage amounted to 2.35. With U45G U132A the figure was 0.86. With U47A A121G the figure was 1.39; with U47A A121U, 1.04; with U45C G105A, 1.34. With U45G A107U the figure was 1.05; with U46A U119A, 1.42.

Turning to U47C A138G, the self-cleavage came out at 1.53. With U45C U73G the figure was 1.22; with U47A G106C, 2.21.

U47A U62A: the self-cleavage was found to be 0.05.

U47A U62C: the self-cleavage turned out to be 0.06. In the case of U45G U81A, the self-cleavage is 1.82.

Turning to U46A U130C, the self-cleavage worked out at 1.88.

U45C C61U: the self-cleavage was found to be 0.09. With U47A U85C the figure was 0.12. With U45G G88U the figure was 0.06.

Consider U46C U104A, for which the self-cleavage is 1.11. With U46A C146A the figure was 1.53; with U46C C71U, 1.11; with U46C C71G, 0.96. With U46G A65G the figure was 0.05. For U47A G86A, the self-cleavage was 0.07. For U47A G127U the value was 1.67; for U45C A107G, 1.73. For U46C G58U the value was 0.05. For U46A U143A the value was 1.38.

With U47A U81C, the self-cleavage is 1.57. For U45C U87A the value was 0.09; for U45C U87C, 0.23; for U45C U104A, 1.43. With U46C U47G the figure was 1.53; with U47C A69C, 0.07. As for U47C A69U, the self-cleavage worked out at 0.06. U45G A59G: the self-cleavage came out at 0. For U46G G53U the value was 1.73; for U46C A79G, 1.29; for U46C A79U, 1.83. In the case of U46C U62C, the self-cleavage was determined as 0.02. For U45G A142G the value was 2.33; for U46A G89C, 0.03.

Take U47A A129G: the self-cleavage was 1.43.

For the variant U46G A117U, the self-cleavage turned out to be 2.76.

As for U46C A140G, the self-cleavage worked out at 1.41. As for U46C A140U, the self-cleavage was determined as 1.46. With U47A U100G the figure was 1.93. As to U45G A117G, the self-cleavage amounted to 0. With U45G U102A the figure was 1.73; with U46C A64U, 0.55; with U46C G125C, 1.44. With U46C U91G the figure was 0.09. With U46C U91C the figure was 0.99; with U47A G137U, 1.36; with U45C A117C, 2.57. Turning to U45C A117U, the self-cleavage came out at 1.36. In the case of U46C C120U, the self-cleavage was 1.57. With U46C C120A the figure was 0.85; with U46C G72U, 1.35. For U46C G72A, the self-cleavage is 0.92. With U45C C111U the figure was 1.51; with U45C G137U, 1.23; with U47A C68U, 0.13. For the variant U46A U104C, the self-cleavage is 1.96.

As to U46G G114A, the self-cleavage turned out to be 1.18.

On to U46A U112C, for which the self-cleavage worked out at 1.28. With U46A U112A the figure was 1.37. As to U45C U112C, the self-cleavage stood at 1.27. For U47A C63U the value was 0.33. Consider U46C C103A, for which the self-cleavage was 1.58. In the case of U46A A136U, the self-cleavage stood at 1.18. With U46G U62C the figure was 0; with U47A A107U, 1.79. With U46A A64G the figure was 0.18.

Take U46A A64U: the self-cleavage worked out at 0.46.

Consider U47A C111A, for which the self-cleavage is 1.18. For U46A A59G the value was 0.07. With U47A U109C the figure was 1.19; with U46A A107C, 1.99; with U46C G48A, 1.04.

With U46A A50G, the self-cleavage was found to be 0.87. With U45C C120U the figure was 1.45. In the case of U47A U96C, the self-cleavage was found to be 0.13. Regarding U45C G48U, the self-cleavage was found to be 0.9. U45G U130C: the self-cleavage worked out at 2.36.

Take U46G A79G: the self-cleavage was found to be 1.23.

For U46A U81C, the self-cleavage was 1.15.

On to U45C U47C, for which the self-cleavage turned out to be 1.23. With U45C U47G the figure was 1.09. With U46A A138G the figure was 1.66; with U46A U91A, 0.62; with U47C A136G, 0.99. On to U46C U87G, for which the self-cleavage stood at 0.55. With U45C G135A, the self-cleavage was 1.28.

As to U45G U112C, the self-cleavage came to 1.38. For U47C A117U the value was 1.33; for U47C A117G, 1.81.

With U47A U132A, the self-cleavage amounted to 1.34. For U45C G126A the value was 1.32. With U45C C131U the figure was 0.93; with U47A U104C, 1.54; with U47A, 1.22. With U47C the figure was 1.47; with U45G, 1.18; with U46A U134A, 0.77. As to U46A U134G, the self-cleavage was determined as 0.84. In the case of U46A C145U, the self-cleavage was 1.52. For U46A A121G the value was 1.15; for U47C A141G, 1.51; for U45C G80C, 1.8.

In the case of U46G U112C, the self-cleavage was found to be 1.48. In the case of U46G U112G, the self-cleavage was 0. With U46A A78U the figure was 2.19; with U46A A78G, 0.69; with U46C G49A, 1.4. For U45G U87C the value was 0.25. With U45C G70U the figure was 0.06; with U46C G53A, 1.54; with U45C C116U, 1.36. Take U45C G60U: the self-cleavage amounted to 0.02. With U45C G60C the figure was 0.03; with U47A U115C, 1.39.

In the case of U47A U115A, the self-cleavage is 1.05. With U46A A129G, the self-cleavage came out at 1.16.
